B1: mRNA-splicing (parent)
chain: AGUUGCUGCUGGGAGCUCCAGCACAGUGAAAUGGACAGAAGGGCAGAGCAA

Variants of: B1
Test: exon inclusion enrichment index; higher = more inclusion; WT1 exon 5 minigene, HEK293

Variant | exon inclusion enrichment index
AGUUAAUGAUGGGAGCUCCAGCACAGUGAAAUGGACAGAAGGGCAGAGCAA [G5A C6A C9A] | 0.239
AGUUAGGGAUGGGCCCUCCAGCACAGUGAAAUGGACAGAAGGGCAGAGCAA [G5A C6G U7G C9A A14C G15C] | 0.000633
AGUUAGGGAUGGGCUCUCCAGCACAGUGAAAUGGACAGAAGGGCAGAGCAA [G5A C6G U7G C9A A14C G15U] | 0.000655
AGUUAGGGAUGGGCACUCCAGCACAGUGAAAUGGACAGAAGGGCAGAGCAA [G5A C6G U7G C9A A14C G15A] | 0.000979
AGUUAGUUAUGGGAGCUCCAGCACAGUGAAAUGGACAGAAGGGCAGAGCAA [G5A C6G G8U C9A] | 0.00122
AGUUAGUUUUGGGAGCUCCAGCACAGUGAAAUGGACAGAAGGGCAGAGCAA [G5A C6G G8U C9U] | 0.00331
AGUUAAAACCGGGAGCUCCAGCACAGUGAAAUGGACAGAAGGGCAGAGCAA [G5A C6A U7A G8A U10C] | 0.831
AGUUAACUAUGGGAGCUCCAGCACAGUGAAAUGGACAGAAGGGCAGAGCAA [G5A C6A U7C G8U C9A] | 0.165
AGUUAGUCAUGGGAGCUCCAGCACAGUGAAAUGGACAGAAGGGCAGAGCAA [G5A C6G G8C C9A] | 0.0264
AGUUAACGACGGGAGCUCCAGCACAGUGAAAUGGACAGAAGGGCAGAGCAA [G5A C6A U7C C9A U10C] | 2.47
AGUGCCCACCGGGAGCUCCAGCACAGUGAAAUGGACAGAAGGGCAGAGCAA [U4G G5C U7C G8A U10C] | 1.75
AGUGCUAUAUGGGAGCUCCAGCACAGUGAAAUGGACAGAAGGGCAGAGCAA [U4G G5C C6U U7A G8U C9A] | 0.157
AGUGUACACAGGGAGCUCCAGCACAGUGAAAUGGACAGAAGGGCAGAGCAA [U4G G5U C6A U7C G8A U10A] | 0.093
AGUUAGGGAUGGGAGCUCCAGCCUAGUGAAAUGGACAGAAGGGCAGAGCAA [G5A C6G U7G C9A A23C C24U] | 0.00192
AGUUAGGGAUGGGAGCUCCAGCCGAGUGAAAUGGACAGAAGGGCAGAGCAA [G5A C6G U7G C9A A23C C24G] | 0.0142
AGUUAGGGAUGGGAGCUCCAGCCAAGUGAAAUGGACAGAAGGGCAGAGCAA [G5A C6G U7G C9A A23C C24A] | 0.00335
AGUUAGUGAUGGGAGCUCCAGCACAGUGAAAUGGACAGAAGGGCAGAGCAA [G5A C6G C9A] | 0.036
AGUGCAAGAAGGGAGCUCCAGCACAGUGAAAUGGACAGAAGGGCAGAGCAA [U4G G5C C6A U7A C9A U10A] | 0.624
AGUUAAUCUCGGGAGCUCCAGCACAGUGAAAUGGACAGAAGGGCAGAGCAA [G5A C6A G8C C9U U10C] | 0.618
AGUGCGCGCCGGGAGCUCCAGCACAGUGAAAUGGACAGAAGGGCAGAGCAA [U4G G5C C6G U7C U10C] | 0.681
AGUGUUUCUCGGGAGCUCCAGCACAGUGAAAUGGACAGAAGGGCAGAGCAA [U4G G5U C6U G8C C9U U10C] | 0.824
AGUUAGAUAUGGGAGCUCCAGCACAGUGAAAUGGACAGAAGGGCAGAGCAA [G5A C6G U7A G8U C9A] | 0.00788
AGUGAUUCUCGGGAGCUCCAGCACAGUGAAAUGGACAGAAGGGCAGAGCAA [U4G G5A C6U G8C C9U U10C] | 1.22
AGUUAAGACCGGGAGCUCCAGCACAGUGAAAUGGACAGAAGGGCAGAGCAA [G5A C6A U7G G8A U10C] | 1.08
AGUGUGCGCCGGGAGCUCCAGCACAGUGAAAUGGACAGAAGGGCAGAGCAA [U4G G5U C6G U7C U10C] | 0.917
AGUGUAAGAAGGGAGCUCCAGCACAGUGAAAUGGACAGAAGGGCAGAGCAA [U4G G5U C6A U7A C9A U10A] | 0.0439

Variant | exon inclusion enrichment index
AGUGACCACCGGGAGCUCCAGCACAGUGAAAUGGACAGAAGGGCAGAGCAA [U4G G5A U7C G8A U10C] | 3.1
AGUUAGAGAUGGGAGCUCCAGCACAGUGAAAUGGACAGAAGGGCAGAGCAA [G5A C6G U7A C9A] | 0.0497
AGUUAGUAAUGGGAGCUCCAGCACAGUGAAAUGGACAGAAGGGCAGAGCAA [G5A C6G G8A C9A] | 0.00571
AGUUAGAACCGGGAGCUCCAGCACAGUGAAAUGGACAGAAGGGCAGAGCAA [G5A C6G U7A G8A U10C] | 0.237
AGUUAGUCUCGGGAGCUCCAGCACAGUGAAAUGGACAGAAGGGCAGAGCAA [G5A C6G G8C C9U U10C] | 0.0763
AGUUAAAGAUGGGAGCUCCAGCACAGUGAAAUGGACAGAAGGGCAGAGCAA [G5A C6A U7A C9A] | 0.386
AGUGACUUUUGGGAGCUCCAGCACAGUGAAAUGGACAGAAGGGCAGAGCAA [U4G G5A G8U C9U] | 0.369
AGUUAGGGAUGGGAGCUCCAGCACAGUGAAAUGGACAGAAGGGCAGAGCAA [G5A C6G U7G C9A] | 0.00225
AGUGUCCACCGGGAGCUCCAGCACAGUGAAAUGGACAGAAGGGCAGAGCAA [U4G G5U U7C G8A U10C] | 2.16
AGUUAAGUAUGGGAGCUCCAGCACAGUGAAAUGGACAGAAGGGCAGAGCAA [G5A C6A U7G G8U C9A] | 0.0264
AGUUACUGCUGGGAGCUCCAGCACAGUGAAAUGGACAGAAGGGCAGAGCAA [G5A] | 0.039
AGUGGCCACCGGGAGCUCCAGCACAGUGAAAUGGACAGAAGGGCAGAGCAA [U4G U7C G8A U10C] | 1.53
AGUUAAUUAUGGGAGCUCCAGCACAGUGAAAUGGACAGAAGGGCAGAGCAA [G5A C6A G8U C9A] | 0.0357
AGUUAAUUUUGGGAGCUCCAGCACAGUGAAAUGGACAGAAGGGCAGAGCAA [G5A C6A G8U C9U] | 0.0445
AGUGUCUGCUGGGAGCUCCAGCACAGUGAAAUGGACAGAAGGGCAGAGCAA [U4G G5U] | 0.105
AGUGCCUGCUGGGAGCUCCAGCACAGUGAAAUGGACAGAAGGGCAGAGCAA [U4G G5C] | 0.226
AGUUAACACAGGGAGCUCCAGCACAGUGAAAUGGACAGAAGGGCAGAGCAA [G5A C6A U7C G8A U10A] | 0.063
AGUUAACACCGGGAGCUCCAGCACAGUGAAAUGGACAGAAGGGCAGAGCAA [G5A C6A U7C G8A U10C] | 1.79
AGUUAGUGCUGGGAGCUCCAGCACAGUGAAAUGGACAGAAGGGCAGAGCAA [G5A C6G] | 0.00371
AGUUAAUGCUGGGAGCUCCAGCACAGUGAAAUGGACAGAAGGGCAGAGCAA [G5A C6A] | 0.0111
AGUUAGCUAUGGGAGCUCCAGCACAGUGAAAUGGACAGAAGGGCAGAGCAA [G5A C6G U7C G8U C9A] | 0.0245
AGUGCUUCUCGGGAGCUCCAGCACAGUGAAAUGGACAGAAGGGCAGAGCAA [U4G G5C C6U G8C C9U U10C] | 1.14
AGUUAGCGAUGGGAGCUCCAGCACAGUGAAAUGGACAGAAGGGCAGAGCAA [G5A C6G U7C C9A] | 0.117
AGUGGCUUUUGGGAGCUCCAGCACAGUGAAAUGGACAGAAGGGCAGAGCAA [U4G G8U C9U] | 0.193
AGUGUUAUAUGGGAGCUCCAGCACAGUGAAAUGGACAGAAGGGCAGAGCAA [U4G G5U C6U U7A G8U C9A] | 0.0955

Reference: the RNAGym collection of RNA variant scans (doi:10.1101/gr.219683.116)
